# Like-named read-outs stand apart in the source and are kept apart here.
# T1: cynomolgus SIRPα-his protein (cynomolgus)
# T1 construct: also called Cyno SIRPα-his; monkey SIRPα
# T1 chain: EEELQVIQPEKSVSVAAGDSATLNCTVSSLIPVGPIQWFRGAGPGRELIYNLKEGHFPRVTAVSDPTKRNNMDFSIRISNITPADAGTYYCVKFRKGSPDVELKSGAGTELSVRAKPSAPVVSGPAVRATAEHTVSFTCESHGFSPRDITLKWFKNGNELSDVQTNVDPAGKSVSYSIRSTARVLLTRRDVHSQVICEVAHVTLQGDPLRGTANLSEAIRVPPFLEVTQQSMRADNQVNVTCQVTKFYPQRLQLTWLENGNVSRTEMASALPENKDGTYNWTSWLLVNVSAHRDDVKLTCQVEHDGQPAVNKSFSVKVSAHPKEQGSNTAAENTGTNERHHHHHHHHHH
# T2: mouse SIRPα-his (mouse, UniProt P97797 35-363, limits assumed)
# T2 chain: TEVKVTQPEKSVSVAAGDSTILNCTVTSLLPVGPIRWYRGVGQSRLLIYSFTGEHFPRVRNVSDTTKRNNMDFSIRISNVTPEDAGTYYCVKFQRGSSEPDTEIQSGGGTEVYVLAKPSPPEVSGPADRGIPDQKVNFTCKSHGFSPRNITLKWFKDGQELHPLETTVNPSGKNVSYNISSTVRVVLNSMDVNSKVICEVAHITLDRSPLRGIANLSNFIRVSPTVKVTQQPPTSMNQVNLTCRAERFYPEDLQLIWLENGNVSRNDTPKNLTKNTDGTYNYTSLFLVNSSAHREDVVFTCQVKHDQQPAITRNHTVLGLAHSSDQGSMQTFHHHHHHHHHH
# Experiments:
# [1] = molecular target: T1, cynomolgus SIRPα-his protein; test: indirect ELISA on coated cynomolgus SIRPα-his, OD(450-630); curve rises only above about 3 nM, to OD about 0.9 at the last point, no plateau
# [2] = molecular target: T3, full length human SIRPα on cell membranes (HEK293-SIRPα cells; 293F-SIRPα cells) (human, UniProt P78324 31-504); test: cell based binding FACS on HEK293-SIRPα cells, MFI
# T3 construct: whole, on cells; also called cell surface human SIRPα; cell surface SIRPα
# human SIRPα-his protein [3] = molecular target: T4, human SIRPα-his protein (human, UniProt P78324 31-370); test: competitive ELISA on coated human SIRPα-his; blocked ligand: biotin-labeled human CD47-his, OD(450-630)
# [4] = molecular target: human SIRPα-isoform 2-his protein (human); test: indirect ELISA on coated human SIRPα-isoform 2-his, OD(450-630)
# [5] = molecular target: T3, full length human SIRPα on cell …; test: cell based blocking FACS on 293F-SIRPα cells; blocked ligand: biotin-labeled human CD47-Fc, MFI
# [6] = molecular target: T5, full length human SIRPβ on cell membranes (HEK293-SIRPβ cells; 293F cells expressing human SIRPβ) (human, UniProt O00241 30-398); test: cell based binding FACS on HEK293-SIRPβ cells, MFI
# T5 construct: whole, on cells; also called cell surface human SIRPβ
# [7] = molecular target: T6, full length human SIRPγ endogenously expressed on Jurkat cells (human, UniProt Q9P1W8 29-387); test: cell based binding FACS on Jurkat cells (endogenous human SIRPγ), MFI; curve flat near MFI 0 (see non_binding)
# T6 construct: whole, on cells; also called human SIRPγ expressed on Jurkat cells
# [8] = molecular target: T7, recombinant human SIRPα-Fc protein (human, biotin-labeled (sites not given)); test: capture ELISA, antibody captured on anti-mouse IgG F(ab')2, biotin-labeled human SIRPα-Fc in solution, OD(450-630)
# T7 construct: also called biotin-labeled human SIRPα-Fc protein
# [9] = molecular target: T1, cynomolgus SIRPα-his protein; test: indirect ELISA on coated cynomolgus SIRPα-his, OD(450-630)
# [10] = molecular target: T3, full length human SIRPα on cell …; test: cell based blocking FACS on 293F-SIRPα cells; blocked ligand: human CD47 protein (CD47-Fc), MFI
# mouse SIRPα-his = molecular target: T2, mouse SIRPα-his; test: indirect ELISA on coated mouse SIRPα-his, OD(450-630)
# human SIRPα-his protein [11] = molecular target: T4, human SIRPα-his protein; test: SPR (Biacore T200); antibody captured on Protein A chip, human SIRPα-his flowed from 200 nM; 1:1 Langmuir fit
# [12] = molecular target: T5, full length human SIRPβ on cell …; test: cell based binding FACS on 293F cells expressing human SIRPβ, MFI
# human SIRPβ-his protein = human SIRPβ-his protein (human, UniProt O00241 30-371); test: SPR (Biacore T200), antibody captured on Protein A chip, human SIRPβ-his flowed
# [13] = molecular target: T8, human FcRn protein (Cat #FCM-H5286, Acro biosystems Inc.) (human, UniProt P55899 24-297; P61769 21-119); test: SPR (Biacore); human FcRn covalently linked to CM5 chip, antibody flowed from 62.5 µg/ml; pH 6.0
# [14] = molecular target: human SIRPα-isoform 2-his protein (human); test: indirect ELISA on coated human SIRPα-isoform 2-his, OD(450-630); remark: listed apart in the source
# [15] = molecular target: T8, human FcRn protein (Cat #FCM-H5286, …); test: SPR (Biacore); human FcRn covalently linked to CM5 chip, antibody flowed from 62.5 µg/ml; pH 7.4
# [16] = molecular target: T6, full length human SIRPγ endogenously …; test: cell based binding FACS on Jurkat cells (endogenous human SIRPγ), MFI
# [17] = molecular target: human SIRPα protein (soluble, used on 293F-CD47 cells) (human, UniProt P78324 31-370, limits assumed); test: cell based blocking FACS on 293F-CD47 cells; soluble human SIRPα protein blocked from binding cell surface human CD47, MFI
# human SIRPγ-his protein = human SIRPγ-his protein (human, UniProt Q9P1W8 29-360, limits assumed); test: SPR (Biacore T200), antibody captured on Protein A chip, human SIRPγ-his flowed
# [18] = molecular target: T1, cynomolgus SIRPα-his protein; test: SPR (Biacore T200); antibody captured on Protein A chip, cynomolgus SIRPα-his flowed from 200 nM; 1:1 Langmuir fit
# [19] = molecular target: human SIRPα-V8-his protein (human, UniProt P78324 31-370, limits assumed); test: indirect ELISA on coated human SIRPα-V8-his, OD(450-630)
# [20] = molecular target: T3, full length human SIRPα on cell …; test: cell based binding FACS on 293F cells expressing human SIRPα, MFI
# [21] = molecular target: T8, human FcRn protein (Cat #FCM-H5286, …); test: SPR (Biacore); human FcRn covalently linked to CM5 chip, antibody flowed from 62.5 µg/ml; pH 6.0; pH 6.0
# [22] = molecular target: T1, cynomolgus SIRPα-his protein; test: indirect ELISA on coated cynomolgus SIRPα-his, OD(450-630)
# [23] = molecular target: T5, full length human SIRPβ on cell …; test: cell based binding FACS on HEK293-SIRPβ cells, MFI; plateau at MFI about 1300
# T8 sequence (P55899 24-297 limits assumed, chain 1 of 2): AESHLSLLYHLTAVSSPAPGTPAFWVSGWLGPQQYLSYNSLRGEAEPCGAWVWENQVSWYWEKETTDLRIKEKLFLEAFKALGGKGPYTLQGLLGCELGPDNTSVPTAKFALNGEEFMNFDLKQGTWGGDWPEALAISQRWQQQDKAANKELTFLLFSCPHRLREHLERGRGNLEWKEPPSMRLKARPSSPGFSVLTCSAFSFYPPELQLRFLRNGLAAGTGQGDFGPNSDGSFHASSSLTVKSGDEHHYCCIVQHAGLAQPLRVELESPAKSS
# T8 sequence (P61769 21-119 limits assumed, chain 2 of 2): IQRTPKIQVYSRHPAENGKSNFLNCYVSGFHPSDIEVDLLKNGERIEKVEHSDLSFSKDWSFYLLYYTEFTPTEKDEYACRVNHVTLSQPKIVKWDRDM
# T5 sequence (O00241 30-398): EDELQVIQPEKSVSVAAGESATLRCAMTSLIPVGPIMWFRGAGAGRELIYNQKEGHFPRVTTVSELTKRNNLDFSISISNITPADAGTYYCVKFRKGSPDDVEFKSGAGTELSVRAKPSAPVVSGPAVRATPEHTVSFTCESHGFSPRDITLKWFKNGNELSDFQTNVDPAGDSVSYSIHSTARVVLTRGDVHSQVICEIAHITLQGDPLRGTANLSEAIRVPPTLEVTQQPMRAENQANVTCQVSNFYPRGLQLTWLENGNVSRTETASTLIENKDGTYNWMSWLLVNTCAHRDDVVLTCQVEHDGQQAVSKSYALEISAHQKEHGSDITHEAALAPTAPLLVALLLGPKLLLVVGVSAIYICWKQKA
# Chain of human SIRPα-isoform 2-his protein (human) (chain, as listed by the source limits assumed): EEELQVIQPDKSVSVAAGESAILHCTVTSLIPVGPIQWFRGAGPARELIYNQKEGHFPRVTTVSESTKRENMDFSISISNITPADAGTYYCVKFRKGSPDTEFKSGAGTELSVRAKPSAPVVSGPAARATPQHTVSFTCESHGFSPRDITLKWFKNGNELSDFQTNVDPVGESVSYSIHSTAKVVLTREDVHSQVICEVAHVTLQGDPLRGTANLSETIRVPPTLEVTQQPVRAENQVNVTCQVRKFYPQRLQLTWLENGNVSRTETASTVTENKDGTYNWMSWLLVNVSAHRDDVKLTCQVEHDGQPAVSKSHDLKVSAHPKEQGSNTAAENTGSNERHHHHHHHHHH
# T4 sequence (P78324 other isoform, or with tags, fused parts or gaps limits assumed): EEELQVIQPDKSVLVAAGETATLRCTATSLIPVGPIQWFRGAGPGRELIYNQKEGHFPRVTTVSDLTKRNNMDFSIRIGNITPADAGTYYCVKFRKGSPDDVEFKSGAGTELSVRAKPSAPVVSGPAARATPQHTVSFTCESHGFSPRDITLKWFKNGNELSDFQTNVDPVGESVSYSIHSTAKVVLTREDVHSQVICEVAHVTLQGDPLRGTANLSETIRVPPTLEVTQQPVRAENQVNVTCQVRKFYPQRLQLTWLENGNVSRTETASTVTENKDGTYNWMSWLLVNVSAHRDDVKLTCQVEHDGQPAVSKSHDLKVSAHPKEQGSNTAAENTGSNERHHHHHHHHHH
# T6 sequence (Q9P1W8 29-387): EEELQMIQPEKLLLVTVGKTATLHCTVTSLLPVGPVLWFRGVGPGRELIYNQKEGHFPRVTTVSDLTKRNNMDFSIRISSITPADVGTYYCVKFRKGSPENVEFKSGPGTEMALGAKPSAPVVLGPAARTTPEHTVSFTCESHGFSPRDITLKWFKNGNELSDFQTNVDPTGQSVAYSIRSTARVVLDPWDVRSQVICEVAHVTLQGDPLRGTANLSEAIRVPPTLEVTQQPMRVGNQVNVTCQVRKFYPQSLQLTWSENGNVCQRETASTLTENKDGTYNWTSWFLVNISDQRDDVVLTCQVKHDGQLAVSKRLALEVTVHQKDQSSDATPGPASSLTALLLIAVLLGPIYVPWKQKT
# T3 sequence (P78324 31-504): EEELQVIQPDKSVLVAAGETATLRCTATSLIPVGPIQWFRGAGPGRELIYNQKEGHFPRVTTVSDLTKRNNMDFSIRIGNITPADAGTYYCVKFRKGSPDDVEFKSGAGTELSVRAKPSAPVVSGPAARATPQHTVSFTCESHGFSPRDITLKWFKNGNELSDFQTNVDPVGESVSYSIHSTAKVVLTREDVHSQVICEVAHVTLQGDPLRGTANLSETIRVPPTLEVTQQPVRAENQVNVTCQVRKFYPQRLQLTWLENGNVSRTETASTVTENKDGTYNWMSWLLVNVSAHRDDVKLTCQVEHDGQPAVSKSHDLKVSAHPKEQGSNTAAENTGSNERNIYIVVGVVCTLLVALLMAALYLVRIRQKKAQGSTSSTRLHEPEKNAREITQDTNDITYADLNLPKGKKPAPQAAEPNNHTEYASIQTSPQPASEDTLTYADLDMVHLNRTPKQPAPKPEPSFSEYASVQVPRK
# Chain of human SIRPα-V8-his protein (P78324 other isoform, or with tags, fused parts or gaps limits assumed): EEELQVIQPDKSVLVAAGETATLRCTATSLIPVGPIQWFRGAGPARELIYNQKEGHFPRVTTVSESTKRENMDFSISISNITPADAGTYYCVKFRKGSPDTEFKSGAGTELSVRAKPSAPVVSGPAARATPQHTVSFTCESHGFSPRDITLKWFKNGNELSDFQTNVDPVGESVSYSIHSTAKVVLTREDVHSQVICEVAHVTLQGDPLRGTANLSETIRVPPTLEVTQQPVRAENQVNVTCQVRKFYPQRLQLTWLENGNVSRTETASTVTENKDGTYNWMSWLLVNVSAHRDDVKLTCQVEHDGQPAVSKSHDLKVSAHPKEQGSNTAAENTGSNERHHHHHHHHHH
# T7 sequence (chain, as listed by the source limits assumed): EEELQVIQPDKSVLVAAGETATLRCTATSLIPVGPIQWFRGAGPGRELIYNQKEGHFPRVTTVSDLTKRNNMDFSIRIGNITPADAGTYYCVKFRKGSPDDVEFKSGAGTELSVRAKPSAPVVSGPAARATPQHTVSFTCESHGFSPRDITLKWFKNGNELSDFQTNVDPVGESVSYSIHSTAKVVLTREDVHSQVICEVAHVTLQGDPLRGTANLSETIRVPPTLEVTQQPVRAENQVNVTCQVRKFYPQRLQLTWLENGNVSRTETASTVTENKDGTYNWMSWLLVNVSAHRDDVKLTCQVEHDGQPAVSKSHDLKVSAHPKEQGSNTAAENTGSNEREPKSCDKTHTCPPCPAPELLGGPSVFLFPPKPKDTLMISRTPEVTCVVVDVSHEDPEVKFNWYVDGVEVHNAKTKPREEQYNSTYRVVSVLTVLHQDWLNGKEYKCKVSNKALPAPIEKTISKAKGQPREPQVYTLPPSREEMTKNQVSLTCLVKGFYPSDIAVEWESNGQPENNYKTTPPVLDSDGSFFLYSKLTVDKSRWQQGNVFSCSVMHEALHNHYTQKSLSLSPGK
# Chain of human SIRPγ-his protein (Q9P1W8 29-360 limits assumed): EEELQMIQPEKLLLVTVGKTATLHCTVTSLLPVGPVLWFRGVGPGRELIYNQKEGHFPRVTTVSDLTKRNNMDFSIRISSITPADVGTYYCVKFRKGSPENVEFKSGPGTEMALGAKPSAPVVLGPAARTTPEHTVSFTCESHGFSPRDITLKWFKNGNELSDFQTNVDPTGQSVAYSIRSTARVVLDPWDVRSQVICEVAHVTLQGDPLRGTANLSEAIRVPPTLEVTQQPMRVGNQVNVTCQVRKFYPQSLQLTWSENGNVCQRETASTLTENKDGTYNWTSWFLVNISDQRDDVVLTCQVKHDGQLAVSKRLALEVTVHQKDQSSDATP
# Chain of human SIRPα protein (soluble, used on 293F-CD47 cells) (P78324 31-370 limits assumed): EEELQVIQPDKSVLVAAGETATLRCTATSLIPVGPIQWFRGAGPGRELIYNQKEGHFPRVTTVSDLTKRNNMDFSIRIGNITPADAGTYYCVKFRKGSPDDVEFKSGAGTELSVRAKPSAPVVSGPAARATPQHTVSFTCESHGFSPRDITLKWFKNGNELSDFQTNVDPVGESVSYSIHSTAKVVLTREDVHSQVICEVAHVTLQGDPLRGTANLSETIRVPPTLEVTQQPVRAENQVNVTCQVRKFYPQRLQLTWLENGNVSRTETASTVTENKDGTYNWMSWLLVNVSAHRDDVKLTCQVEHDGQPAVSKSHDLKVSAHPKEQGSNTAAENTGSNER
# Chain of human SIRPβ-his protein (O00241 other isoform, or with tags, fused parts or gaps limits assumed): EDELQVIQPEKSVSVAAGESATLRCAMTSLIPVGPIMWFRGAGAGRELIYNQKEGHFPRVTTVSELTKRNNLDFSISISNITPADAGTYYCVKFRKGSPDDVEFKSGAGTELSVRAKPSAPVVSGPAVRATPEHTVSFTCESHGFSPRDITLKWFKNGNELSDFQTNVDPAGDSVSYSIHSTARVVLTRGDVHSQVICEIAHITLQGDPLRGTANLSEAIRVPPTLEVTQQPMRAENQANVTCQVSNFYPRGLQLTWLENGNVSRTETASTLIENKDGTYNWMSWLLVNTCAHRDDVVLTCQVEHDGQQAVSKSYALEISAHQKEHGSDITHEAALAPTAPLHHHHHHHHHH
Binder,EC50 [2],IC50 (human SIRPα-his protein [3]),EC50 [4],IC50 [5],EC50 [7],EC50 [8],EC50 [9],IC50 [10],binding result (mouse SIRPα-his),Kd (human SIRPα-his protein [11]),koff (human SIRPα-his protein [11]),kon (human SIRPα-his protein [11]),EC50 [12],binding result (human SIRPβ-his protein),EC50 [14],binding result [16],IC50 [17],binding result (human SIRPγ-his protein),Kd [18],koff [18],further results
"E1F1B1C3 (antibody, V domains shown) VH: QVQLVQSGAEVKKPGASVKVSCKASGYTFTSNAMHWVRQVPGQGLEWMGWIKAGNGEIKYSQKFQGRVTITRDTSATTAYMELSSLRSEDTAVYYCARGDYYYYYMDVWGKGTTVTVSS VL: DIQVTQSPSSLSASVGDRVTITCRASQSISDFLNWYQQKPGKAPKLLIHAASSLQNGVPSRFSGSGSGTDFSLTINSLQPEDFATYYCQQSYSTPLSFGGGTKVEIK",0.303 nM,2.13 nM,0.105 nM,0.146 nM,106 nM,0.0491 nM,,,,,,,,,,,,,,,EC50 [1]: 48.1 nM; EC50 [6]: 0.217 nM
E1H10B7-CDRV1-IgG1 (YTE) (antibody) heavy: QVQLVQSGAEVKKPGASVKVSCKASGYTFTSYAMQWVRQAPGQRLEWMGWIIAGNADTKYSQNFQDRVTLTRDTSANTAYMDLSGLRSEDTAVYYCARGSGFSGYGYFDKWGQGTLVTVSSASTKGPSVFPLAPSSKSTSGGTAALGCLVKDYFPEPVTVSWNSGALTSGVHTFPAVLQSSGLYSLSSVVTVPSSSLGTQTYICNVNHKPSNTKVDKKVEPKSCDKTHTCPPCPAPEAQGGPSVFLFPPKPKDTLYITREPEVTCVVVDVSHEDPEVKFNWYVDGVEVHNAKTKPREEQYNSTYRVVSVLTVLHQDWLNGKEYKCQVSNKALPAPIEKTISKAKGQPREPQVYTLPPSRDELTKNQVSLTCLVKGFYPSDIAVEWESNGQPENNYKTTPPVLDSDGSFFLYSKLTVDKSRWQQGNVFSCSVMHEALHNHYTQKSLSLSPG light: DIQMTQSPSSLSASVGDRVTITCRASHSISSYLNWYQQKPGKVPKLLIYASSSLQSGVPSRFSGSGSGTDFTLIISSLQPEDFATYYCQQSHSIPLTFGGGTKVEIKRTVAAPSVFIFPPSDEQLKSGTASVVCLLNNFYPREAKVQWKVDNALQSGNSQESVTEQDSKDSTYSLSSTLTLSKADYEKHKVYACEVTHQGLSSPVTKSFNRGEC,,,,,,,0.209 nM,2.62 nM,no binding (tested: ~67 nM),14.6 nM,0.00188 s⁻¹,129000 M⁻¹ s⁻¹,1.47 nM,no binding,0.173 nM,no binding (tested: ~67 nM),0.368 nM,no binding (tested: antigen starting at 200 nM),553 nM,0.0146 s⁻¹,Kd [13]: 28.8 nM; Kd [15]: 129 nM; kon [18]: 26400 M⁻¹ s⁻¹; EC50 [19]: 0.141 nM; EC50 [20]: 0.956 nM
E1H10B7-CDRV1-IgG1 (antibody) heavy: not shown light: DIQMTQSPSSLSASVGDRVTITCRASHSISSYLNWYQQKPGKVPKLLIYASSSLQSGVPSRFSGSGSGTDFTLIISSLQPEDFATYYCQQSHSIPLTFGGGTKVEIKRTVAAPSVFIFPPSDEQLKSGTASVVCLLNNFYPREAKVQWKVDNALQSGNSQESVTEQDSKDSTYSLSSTLTLSKADYEKHKVYACEVTHQGLSSPVTKSFNRGEC,,,,,,,0.224 nM,2.3 nM,no binding (tested: ~67 nM),8.78 nM,0.00118 s⁻¹,134000 M⁻¹ s⁻¹,1.23 nM,no binding,0.184 nM,no binding (tested: ~67 nM),0.347 nM,no binding (tested: antigen starting at 200 nM),376 nM,0.0132 s⁻¹,Kd [21]: 94.1 nM; kon [18]: 35000 M⁻¹ s⁻¹; EC50 [19]: 0.151 nM; EC50 [20]: 0.973 nM
"E1D5E1F1 (antibody, V domains shown, Purified from a hybridoma of AceMouse mice: human heavy and light chain variable regions with mouse constant regions) VH: QVQLVQSGAEVKKPGASVKVSCKASGYTFTSFAMQWVRRAPGQRLEWMGWIIAGNGDTKYSQNFQDRVTLTRDTSANTAYMDLSGLRSEDTAVYYCARGSGFSGYGYFDKWGQGTLVTVSS VL: DIQMTQSPSSLSASVGDRVTITCRASHSISSYLNWYQQKPGKVPKLLIYASSSLQSGVPSRFSGNGSGTDFTLIISSLQPEDFATYYCQQSHSIPLTFGGGTKVEIK",0.927 nM,2.17 nM,0.119 nM,0.706 nM,0.63 nM,0.0715 nM,,,,,,,,,,,,,,,EC50 [22]: 0.094 nM; EC50 [23]: 0.738 nM
